Data on two substances can be found in patent publication US20090029370A1.

Where “and” joins values, the source holds several entries; their conditions need not be identical. Equal values may be shown once.

The target in assay [1] is bacteriophage λN peptide fused to the N-terminus of β-EGFP (bacteriophage λ; Aequorea victoria) [GFP: P42212]. The assay can be described thus: cell-based or functional assay.
The target in assay [2] is β-fragment of EGFP (betaCys-fragment, 159-234 aa) biotinylated, tagged with streptavidin and a biotinylated 21-nt oligonucleotide (Aequorea victoria) [GFP: P42212]. As to the kind of experiment: cell-based or functional assay.

In the case of “α-EGFP fused at its C-terminus to HTLV-1 Rex peptide (from UniProt P42212 1-158)”, in assay [1], the average fluorescence over background (no RNA component), 0.01 mM IPTG is 10 fold and 15 fold; the signal/background ratio at reduced IPTG is 10 fold and 20 fold. “α-fragment of EGFP (alphaCys-fragment, 1-158) biotinylated, tagged with streptavidin and a biotinylated 21-nt oligonucleotide (from UniProt P42212 1-158; P22629 37-163)” came in with a t½ of fluorescence increase upon mixing in assay [2] of 1.67 min.
